Data on one substance can be found in paper PMC11343202.

This assay has as its target GFP with a c-Myc nuclear localization signal at the C-terminus (GFP-NLS). Nature of the assay: label-free LC MS/MS.

The substance “AAV-DJ capsid incorporating VP1 with a GFPnb inserted at position H631, supplemented with wild type VP2/VP3 (complex)” had a GFP:capsid (GFP-NLS per capsid) of 1 to 3.
